In US9889181B2, “Bacteriophage lysin and antibiotic combinations against gram positive bacteria” (priority 2012, dated 2018):

How the values were obtained:
Klebsiella spp. = test: MIC, human gut bacteria; type: cell-based; conditions: N 8
Proteus mirabilis = test: MIC, human gut bacteria; type: cell-based; conditions: N 2
[1] = tested on: S. aureus cells (strain MW2); test: Electron microscopy of bacteriolysis; type: cell-based, Staphylococcus aureus
From the text: FIG. 4A-4F provides composite time kill curves of PlySS2 and antibiotics on S. aureus cells in vitro. (A, B) Composite time-kill curves of PlySS2 compared to oxacillin (OXA), vancomycin (VAN), and daptomycin (DAP) against sets of 20 MSSA and 42 MRSA strains, respectively. In each individual analysis, drug concentrations correspond to strain-specific 1×MIC values. Mean values (±standard error of the mean) are shown for each time-point. (C, D) Titration analysis of PlySS2 against sets of 15 contemporary clinical MSSA and MRSA isolates, respectively. In each individual analysis, PlySS2 concentrations correspond to strain-specific MIC values. […] (E,F) Transmission electron micrographs (3300× magnification) of S. aureus cells (strain MW2) before and after 3 second treatment with 8 µg/mL PlySS2. Scale bars correspond to […]. Lysis results in the loss of darkly stained cytoplasmic components.
Rapid-kill kinetics are desirable in the clinical setting to treat patients with fulminant bacterial infections.

MRSA strains = test: Time kill assay, PlySs2 and antibiotic alone or in combination; type: cell-based, Staphylococcus aureus; conditions: ½ MIC of PlySs2 or ¼ MIC of vancomycin alone
MRSA S. aureus strains = test: Dual agent MIC assay (PlySs2 and daptomycin); type: cell-based, Staphylococcus aureus
MRSA strain MW2 = test: Murine bacteremia, low challenge model; type: in vivo, BALB/c mice; conditions: single dose at 4 hours; 1.25 mg/kg PlySs2, 2 mg/kg daptomycin
MRSA [2] = test: Murine bacteremia, PlySs2 dose-response and blood CFUs; type: in vivo, mice; conditions: for decrease in CFUs in blood: 5.25 mg/kg at 2-hours post-infection
MRSA [3] = test: MIC, broth microdilution (CLSI M07-A9)
VISA = test: MIC, broth microdilution (CLSI M07-A9); parameters: MIC 50% / MIC 90% / MIC Range: unit not given beside the values
DRSA = test: MIC, broth microdilution (CLSI M07-A9)
[4] = tested on: Streptococcus agalactiae, Group B; test: MIC, broth microdilution (CLSI M07-A9); conditions: Group B (51)
[5] = tested on: Staphylococcus lugdiensis; test: MIC, broth microdilution (CLSI M07-A9); conditions: Staphylococcus lugdiensis (10)
[6] = tested on: Staphylococcus epidermidis; test: MIC, broth microdilution (CLSI M07-A9); conditions: Staphylococcus epidermidis (11)
Streptococcus pneumoniae = test: MIC, broth microdilution (CLSI M07-A9); conditions: Streptococcus pneumoniae (26)
Streptococcus mutans = test: MIC, broth microdilution (CLSI M07-A9); conditions: Streptococcus mutans (12)
Enterococcus faecalis = test: MIC, broth microdilution (CLSI M07-A9); conditions: Enterococcus faecalis (17)
Acinetobacter baumannii = test: MIC, broth microdilution (CLSI M07-A9); conditions: Acinetobacter baumannii (8)
Pseudomonas aeruginosa = test: MIC, broth microdilution (CLSI M07-A9)
[7] = Staphylcoccus aureus Methicillin resistant (120)
[8] = Vancomycin-intermediate (31) Staphylococcus aureus

B1: PlySs2: bacteriophage lysin derived from Streptococcus suis, amino acid sequence of FIG. 29 (SEQ ID NO: 1) (protein, listed as Streptococcus suis)
chain: MTTVNEALNNVRAQVGSGVSVGNGECYALASWYERMISPDATVGLGAGVGWVSGAIGDTISAKNIGSSYNWQANGWTVSTSGPFKAGQIVTLGATPGNPYGHVVIVEAVDGDRLTILEQNYGGKRYPVRNYYSAASYRQQVVHYITPPGTVAQSAPNLAGSRSYRETGTMTVTVDALNVRRAPNTSGEIVAVYKRGESFDYDTVIIDVNGYVWVSYIGGSGKRNYVATGATKDGKRFGNAWGTFK
- CF-301 MIC (Klebsiella spp.): >512 µg/mL
- CF-301 MIC (Proteus mirabilis): >512 µg/mL
- treatment time giving extensive bacteriolysis of S. aureus cocci [1]: 15 s
- effect alone at sub-MIC doses up to 6 hours (MRSA strains): ineffective or poorly effective
- Fold reduction (MRSA S. aureus strains; MRSA strain 223): 4 fold
- Fold reduction (MRSA S. aureus strains; MRSA strain 241): 2 fold
- Fold reduction (MRSA S. aureus strains; MRSA strain 263): 4 fold
- Fold reduction (MRSA S. aureus strains; MRSA strain 269 (MW2)): 4 fold
- Fold reduction (MRSA S. aureus strains; MRSA strain 270): 4 fold
- Fold reduction (MRSA S. aureus strains; MRSA strain 553): 2 fold
- Fold reduction (MRSA S. aureus strains; MRSA strain 650): 2 fold
- Fold reduction (MRSA S. aureus strains; MRSA strain 827): 2 fold
- Fold reduction (MRSA S. aureus strains; MRSA strain 828): 4 fold
- Fold reduction (MRSA S. aureus strains; MRSA strain 829): 2 fold
- Fold reduction (MRSA S. aureus strains; MRSA strain 830): 2 fold
- Fold reduction (MRSA S. aureus strains; MRSA strain 833): 4 fold
- fold reduction in the effective MIC in PlySs2/daptomycin combination (MRSA S. aureus strains; across 12 MRSA strains): 2-4 fold
- survival at 72 hours (MRSA strain MW2): 13%
- protection (MRSA [2]; 5 mg/kg dose, data not shown): significant protection
- decrease in CFUs in blood (MRSA [2]; in 15 minutes): 0.5 log10
- decrease in CFUs in blood (MRSA [2]; within the 60 minutes of treatment): 2 log10
- lowest dose with survival enhancement over mock-injected control (MRSA [2]; data not shown): 0.25 mg/kg
- MIC90 (MRSA [3]; MRSA (n = 45)): 0.15 µM
- MIC 50% (MRSA [3]; [7]): 4 µg/mL
- MIC 90% (MRSA [3]; [7]): 8 µg/mL
- MIC Range (MRSA [3]; [7]): 1 to 16 µg/mL
- MIC (MRSA [3]; strain MW2, without DTT): 32 µg/mL
- MIC90 (VISA; VISA (n = 10)): 1.2 µM
- MIC 50% (VISA; [8]): 8
- MIC 90% (VISA; [8]): 32
- MIC Range (VISA; [8]): 1-64
- MIC90 (DRSA; DRSA (n = 8)): 0.15 µM
- MIC Range (DRSA; Daptomycin-resistant (8) Staphylococcus aureus): 2000 to 4000 µg/mL
- MIC 50% [4]: 8 µg/mL
- MIC 90% [4]: 16 µg/mL
- MIC Range [4]: 1 to 64 µg/mL
- MIC 50% [5]: 8 µg/mL
- MIC 90% [5]: 8 µg/mL
- MIC Range [5]: 8 µg/mL
- MIC 50% [6]: 128 µg/mL
- MIC 90% [6]: 512 µg/mL
- MIC Range [6]: 4 to 512 µg/mL
- MIC 50% (Streptococcus pneumoniae): 16 µg/mL
- MIC 90% (Streptococcus pneumoniae): 64 µg/mL
- MIC Range (Streptococcus pneumoniae): 1 to 64 µg/mL
- MIC 50% (Streptococcus mutans): 64 µg/mL
- MIC 90% (Streptococcus mutans): 256 µg/mL
- MIC Range (Streptococcus mutans): 2 to 256 µg/mL
- MIC 50% (Enterococcus faecalis): >512 µg/mL
- MIC 90% (Enterococcus faecalis): >512 µg/mL
- MIC 50% (Acinetobacter baumannii): >512 µg/mL
- MIC 90% (Acinetobacter baumannii): >512 µg/mL
- MIC Range (Acinetobacter baumannii): >512 µg/mL
- MIC 50% (Pseudomonas aeruginosa; Pseudomonas aeruginosa (5)): >512 µg/mL
- MIC 90% (Pseudomonas aeruginosa; Pseudomonas aeruginosa (5)): >512 µg/mL
- MIC Range (Pseudomonas aeruginosa; Pseudomonas aeruginosa (5)): >512 µg/mL
- CF-301 MIC (Pseudomonas aeruginosa; Pseudomonas aeruginosa, N 11, human gut bacteria): >512 µg/mL
